In patent US20230151091A1 (NEW YORK UNIVERSITY, published 2023):

T1: human MuSK (human, UniProt O15146 24-495)
T1 construct: Recombinant protein coated on ELISA plates (R&D Systems cat. 10189-MK) or on the Biacore chip; also called human muscle-specific tyrosine protein kinase; full length human MuSK
T1 sequence: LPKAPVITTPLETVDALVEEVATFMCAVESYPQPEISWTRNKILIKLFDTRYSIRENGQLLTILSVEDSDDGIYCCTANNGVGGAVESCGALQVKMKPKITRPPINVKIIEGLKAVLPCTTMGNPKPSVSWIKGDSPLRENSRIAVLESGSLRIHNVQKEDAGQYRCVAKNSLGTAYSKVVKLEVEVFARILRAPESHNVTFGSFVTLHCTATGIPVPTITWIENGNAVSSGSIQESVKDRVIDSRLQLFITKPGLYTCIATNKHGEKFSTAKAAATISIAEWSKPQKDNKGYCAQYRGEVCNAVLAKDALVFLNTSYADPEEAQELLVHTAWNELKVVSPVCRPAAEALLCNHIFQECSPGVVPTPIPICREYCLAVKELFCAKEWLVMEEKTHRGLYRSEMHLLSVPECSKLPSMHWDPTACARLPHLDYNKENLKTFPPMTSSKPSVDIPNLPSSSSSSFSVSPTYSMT

T2: mouse MuSK (mouse, UniProt Q61006 22-494, limits assumed)
T2 construct: Coated on ELISA plates or on the Biacore chip; also called full length mouse MuSK; mouse MuSK (in house produced in HEK293 cells)
T2 sequence (looked up): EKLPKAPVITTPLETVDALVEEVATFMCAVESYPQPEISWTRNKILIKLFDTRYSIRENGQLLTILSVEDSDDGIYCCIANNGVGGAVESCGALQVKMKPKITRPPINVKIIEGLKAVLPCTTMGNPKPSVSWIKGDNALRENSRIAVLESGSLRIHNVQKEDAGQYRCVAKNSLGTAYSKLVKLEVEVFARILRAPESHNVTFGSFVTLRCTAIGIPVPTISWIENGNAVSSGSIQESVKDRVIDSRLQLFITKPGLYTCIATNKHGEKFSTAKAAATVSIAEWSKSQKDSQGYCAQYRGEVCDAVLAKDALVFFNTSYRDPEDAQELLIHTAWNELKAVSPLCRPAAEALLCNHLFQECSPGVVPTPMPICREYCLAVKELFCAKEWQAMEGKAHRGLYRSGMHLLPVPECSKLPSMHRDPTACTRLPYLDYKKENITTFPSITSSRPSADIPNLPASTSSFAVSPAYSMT

T3: mFz: Fz domain and C-terminal flanking sequence of mouse MuSK (D307 to T494) with C-terminal Avi- and … (mouse, UniProt Q61006 307-494, limits assumed, biotinylated in vitro using the BirA enzyme)
T3 construct: also called mouse Fz; not shown: Avi- and His6-tags
T3 sequence (looked up): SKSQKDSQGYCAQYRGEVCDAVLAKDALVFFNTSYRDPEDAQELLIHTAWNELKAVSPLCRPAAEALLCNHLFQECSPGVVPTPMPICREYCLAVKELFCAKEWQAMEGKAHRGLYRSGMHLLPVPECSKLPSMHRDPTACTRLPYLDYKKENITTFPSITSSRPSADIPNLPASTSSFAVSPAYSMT

T4: hECD: full-length extracellular region of human MuSK (E22 to T495) with C-terminal Avi- and His6-tags (human, UniProt O15146 22-495, biotinylated in vitro using the BirA enzyme)
T4 construct: also called human ECD; not shown: Avi- and His6-tags
T4 sequence: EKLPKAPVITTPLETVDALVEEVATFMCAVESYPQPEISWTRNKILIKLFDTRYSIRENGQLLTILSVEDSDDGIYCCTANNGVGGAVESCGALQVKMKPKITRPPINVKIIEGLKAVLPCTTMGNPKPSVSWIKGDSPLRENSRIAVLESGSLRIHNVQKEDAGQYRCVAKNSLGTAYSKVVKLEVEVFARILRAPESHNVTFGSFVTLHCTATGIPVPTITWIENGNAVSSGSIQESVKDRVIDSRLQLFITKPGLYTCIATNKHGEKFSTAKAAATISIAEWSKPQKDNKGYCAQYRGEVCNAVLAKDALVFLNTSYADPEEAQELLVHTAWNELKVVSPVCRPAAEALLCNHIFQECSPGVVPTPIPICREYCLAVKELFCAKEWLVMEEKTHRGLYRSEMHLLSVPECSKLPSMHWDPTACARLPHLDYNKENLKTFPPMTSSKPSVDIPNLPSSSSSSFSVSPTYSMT

T5: mECD: full-length extracellular region of mouse MuSK (E22 to T494) with C-terminal Avi- and His6-tags (mouse, UniProt Q61006 22-494, biotinylated in vitro using the BirA enzyme)
T5 construct: range 22-494; also called mouse ECD; not shown: Avi- and His6-tags
T5 sequence (looked up): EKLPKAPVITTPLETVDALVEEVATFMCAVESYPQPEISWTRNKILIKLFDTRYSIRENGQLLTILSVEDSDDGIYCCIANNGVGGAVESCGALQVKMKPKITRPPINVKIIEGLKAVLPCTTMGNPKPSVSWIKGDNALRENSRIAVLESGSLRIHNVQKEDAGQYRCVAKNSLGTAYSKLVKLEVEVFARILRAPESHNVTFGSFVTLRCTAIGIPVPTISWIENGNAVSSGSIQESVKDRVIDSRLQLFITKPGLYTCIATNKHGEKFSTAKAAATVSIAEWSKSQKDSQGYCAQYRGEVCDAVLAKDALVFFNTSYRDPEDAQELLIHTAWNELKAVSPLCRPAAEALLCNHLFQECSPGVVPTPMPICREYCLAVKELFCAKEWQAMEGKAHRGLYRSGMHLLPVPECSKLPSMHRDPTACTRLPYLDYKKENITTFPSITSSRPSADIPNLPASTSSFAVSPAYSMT

T6: hFz: Fz domain and C-terminal flanking sequence of human MuSK (K314-T495) with C-terminal Avi- and His6-tags (human, UniProt O15146 314-495, biotinylated in vitro using the BirA enzyme)
T6 construct: also called human Fz; not shown: Avi- and His6-tags
T6 sequence: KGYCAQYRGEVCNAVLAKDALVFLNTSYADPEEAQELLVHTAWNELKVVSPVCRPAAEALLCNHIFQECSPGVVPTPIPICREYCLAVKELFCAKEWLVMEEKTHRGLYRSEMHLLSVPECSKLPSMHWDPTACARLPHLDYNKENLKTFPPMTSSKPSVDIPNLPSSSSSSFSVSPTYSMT


How the values were obtained:
human MuSK [1] = target: T1, human MuSK; assay: Biacore T200, off rate at pH 5.5 against pH 7.4
Method: (§1) In order to study pH dependent binding of the antibodies described herein to MuSK, a Biacore T200 was used. Briefly, a CMS chip was coated with human and mouse MuSK (200RU) and 22.2 nM of Fab was applied and kinetic parameters calculated. Association was done at pH7.4, dissociation was done at pH 7.4 and also at pH 5.5. The following Fabs were tested, X2, X2m4, X3, X9, X17, 3B2 and 3B2g2m1 (Table 10 and FIG. 23). […] Binding affinity at pH 5.5 is very low, resulting in a rapid dissociation at endosomal pH allowing 3B2g2m1 to recycle.

mouse MuSK [2] = target: T2, mouse MuSK; assay: Biacore T200, off rate at pH 5.5 against pH 7.4
Method: as §1

human MuSK [3] = target: T1, human MuSK; assay: Biacore T200, MuSK on chip (200RU), 22.2 nM Fab, dissociation pH 5.5
Method: as §1

mouse MuSK [4] = target: T2, mouse MuSK; assay: as above
Method: as §1

human MuSK [5] = target: T1, human MuSK; assay: Biacore T200, MuSK on chip (200RU), 22.2 nM Fab, dissociation pH 7.4
Method: as §1

mouse MuSK [6] = target: T2, mouse MuSK; assay: as above
Method: as §1

[7] = target: T3, mFz: Fz domain and C-terminal flanking …; assay: bead-binding assay, Fab format: biotinylated antigen on streptavidin beads, flow cytometry, 1:1 fit; average ± s.d., n=3
[8] = target: T4, hECD: full-length extracellular region …; assay: as above
[9] = target: T5, mECD: full-length extracellular region …; assay: as above
[10] = target: T6, hFz: Fz domain and C-terminal flanking …; assay: as above
[11] = target: T3, mFz: Fz domain and C-terminal flanking …; assay: bead-binding titration, Fab format: antigen immobilized on streptavidin beads, MFI by flow cytometry, curve is the 1:1 fit
[12] = target: T6, hFz: Fz domain and C-terminal flanking …; assay: as above
[13] = target: T3, mFz: Fz domain and C-terminal flanking …; assay: bead-binding assay, IgG format: biotinylated antigen on streptavidin beads, flow cytometry, 1:1 fit; average ± s.d., n=3
[14] = target: T4, hECD: full-length extracellular region …; assay: as above
[15] = target: T5, mECD: full-length extracellular region …; assay: as above
[16] = target: T6, hFz: Fz domain and C-terminal flanking …; assay: as above
[17] = target: T3, mFz: Fz domain and C-terminal flanking …; assay: bead-binding titration, IgG format: antigen immobilized on streptavidin beads, MFI by flow cytometry, curve is the 1:1 fit
[18] = target: T5, mECD: full-length extracellular region …; assay: as above

Ratio pH 5.5/7.4 of off rate (human MuSK [1]) | Ratio pH 5.5/7.4 of off rate (mouse MuSK [2]) | koff (human MuSK [3]) [s⁻¹] | koff (mouse MuSK [4]) [s⁻¹] | koff (human MuSK [5]) [s⁻¹] | koff (mouse MuSK [6]) [s⁻¹] | Kd [7] [nM] | Kd [8] [nM] | Kd [9] [nM] | Kd [10] [nM] | EC50 (read off the curve) [11] [nM] | EC50 (read off the curve) [12] [nM] | Kd [13] [nM] | Kd [14] [nM] | Kd [15] [nM] | Kd [16] [nM] | EC50 (read off the curve) [17] [nM] | EC50 (read off the curve) [18] [nM] | Binder
7.7 | 1.7 | 0.00678 | 0.002 | 0.00088 | 0.0012 | 0.47 | 0.52 | 0.63 | 0.38 | ~0.3 | ~0.4 | – | – | – | – | – | – | X17 Fab (Fab, V domains shown, Fab format) VH: EVQLVESGGGLVQPGGSLRLSCAASGFTISYSSIHWVRQAPGKGLEWVASIYSSSGSTYYADSVKGRFTISADTSKNTAYLQMNSLRAEDTAVYYCARGDHGYYVFGYLGMDYWGQGTLVTVSS VL: DIQMTQSPSSLSASVGDRVTITCRASQSVSSAVAWYQQKPGKAPKLLIYSASSLYSGVPSRFSGSRSGTDFTLTISSLQPEDFATYYCQQSYKPGALITFGQGTKVEIK
– | – | – | – | – | – | – | – | – | – | – | – | 0.096 | 0.113 | 0.118 | 0.079 | ~0.1 | ~0.1 | mIgG2a-X3 (antibody, V domains shown, mouse IgG2a format; also called X3 in mouse IgG2a format) VH: EVQLVESGGGLVQPGGSLRLSCAASGFTISSSSIHWVRQAPGKGLEWVASISSSSGYTYYADSVKGRFTISADTSKNTAYLQMNSLRAEDTAVYYCARSWYEMWMSGYFGFDYWGQGTLVTVSS VL: DIQMTQSPSSLSASVGDRVTITCRASQSVSSAVAWYQQKPGKAPKLLIYSASSLYSGVPSRFSGSRSGTDFTLTISSLQPEDFATYYCQQSSSSLITFGQGTKVEIK
– | – | – | – | – | – | – | – | – | – | – | – | 0.265 | 0.478 | 0.307 | 0.421 | ~0.3 | ~0.4 | hIgG1-X2 (antibody, V domains shown, human IgG1 Fc containing LALA mutations; also called hIgG-X2; X2 in the human IgG1 format) VH: EVQLVESGGGLVQPGGSLRLSCAASGFTVSSSSIHWVRQAPGKGLEWVASISSSYGSTSYADSVKGRFTISADTSKNTAYLQMNSLRAEDTAVYYCARSEGDRYVSGYMGMDYWGQGTLVTVSS VL: DIQMTQSPSSLSASVGDRVTITCRASQSVSSAVAWYQQKPGKAPKLLIYSASSLYSGVPSRFSGSRSGTDFTLTISSLQPEDFATYYCQQSGVWLITFGQGTKVEIK
– | – | – | – | – | – | – | – | – | – | – | – | 0.07 | 0.074 | 0.079 | 0.057 | ~0.07 | ~0.08 | hIgG1-X3 (antibody, V domains shown, human IgG1 Fc containing LALA mutations; also called X3 in human IgG1 format) VH: EVQLVESGGGLVQPGGSLRLSCAASGFTISSSSIHWVRQAPGKGLEWVASISSSSGYTYYADSVKGRFTISADTSKNTAYLQMNSLRAEDTAVYYCARSWYEMWMSGYFGFDYWGQGTLVTVSS VL: DIQMTQSPSSLSASVGDRVTITCRASQSVSSAVAWYQQKPGKAPKLLIYSASSLYSGVPSRFSGSRSGTDFTLTISSLQPEDFATYYCQQSSSSLITFGQGTKVEIK
